Broadly, the Kd is a measure of binding affinity in units of concentration. Read a low Kd as higher affinity.

The text below walks through data of publication PMC6338552 (Biochemistry, 2018).

B1: TMR-JIPtide (peptide)
peptide: {TMR}-RPKRPTTLNLF-OH
B2: His6-JNK1α1 (enzyme, UniProt P45983-2 1-384, looked up)
chain: MSRSKRDNNFYSVEIGDSTFTVLKRYQNLKPIGSGAQGIVCAAYDAILERNVAIKKLSRPFQNQTHAKRAYRELVLMKCVNHKNIIGLLNVFTPQKSLEEFQDVYIVMELMDANLCQVIQMELDHERMSYLLYQMLCGIKHLHSAGIIHRDLKPSNIVVKSDCTLKILDFGLARTAGTSFMMTPYVVTRYYRAPEVILGMGYKENVDLWSVGCIMGEMVCHKILFPGRDYIDQWNKVIEQLGTPCPEFMKKLQPTVRTYVENRPKYAGYSFEKLFPDVLFPADSEHNKLKASQARDLLSKMLVIDASKRISVDEALQHPYINVWYDPSEAEAPPPKIPDKQLDEREHTIEEWKELIYKEVMDLEERTKNGVIRGQPSPLAQVQQ

Read-outs that look alike come from different tables or passages of the source. TMR = 6-carboxytetramethylrhodamine

Test in all cases: fluorescence polarisation
Test [1] deals with B2.
Test [2] deals with T1, His6-JNK2α1 (UniProt P45984-2 1-382).
Test [3] deals with T2, His6-JNK3α1 (UniProt P53779-2 1-422).
The target in test [4] is B2. This is another data set of the same source.
The target in test [5] is T1, His6-JNK2α1. This is another data set of the same source.
In test [6] the target is T2, His6-JNK3α1. This is another data set of the same source.
Test [7] has as its target B2. The source holds these as a separate data set.
Test [8] concerns the target T1, His6-JNK2α1. The source holds these as a separate data set.
Test [9] concerns the target T2, His6-JNK3α1. This is another data set of the same source.
For test [10], the target named is B2. The source holds these as a separate data set.
In test [11] the target is T1, His6-JNK2α1. The source holds these as a separate data set.
The target in test [12] is T2, His6-JNK3α1. This is another data set of the same source.
Test [13] addresses B2. The source holds these as a separate data set.
Test [14] concerns the target T1, His6-JNK2α1. The source holds these as a separate data set.
Test [15] concerns the target T2, His6-JNK3α1. The source holds these as a separate data set.
The target of test [16] is T2, His6-JNK3α1. The source holds these as a separate data set.
Test [17] addresses B2. This is another data set of the same source.
Test [18] concerns the target T1, His6-JNK2α1. This is another data set of the same source.
Test [19] deals with T2, His6-JNK3α1. The source holds these as a separate data set.
Test [20] addresses B2. This is another data set of the same source.
In test [21] the target is T1, His6-JNK2α1. The source holds these as a separate data set.
The target in test [22] is T2, His6-JNK3α1. The source holds these as a separate data set.
The target in the test “TMR-JIPtide” is B1.

As to B1, the dissociation constant Kd with His6-JNK1α1 [1] stood at 680 nM; in the test with His6-JNK2α1 [2] it was 37000 nM; with His6-JNK3α1 [3] it was 1700 nM; with His6-JNK1α1 [4], 3200 nM; with His6-JNK2α1 [5], 15000 nM; in the test with His6-JNK3α1 [6], 4600 nM. The Kd with His6-JNK1α1 [7] was determined as 250 nM; in the test with His6-JNK2α1 [8] it was 3000 nM; in the test with His6-JNK3α1 [9] it was 640 nM; in the test with His6-JNK1α1 [10] it was 1500 nM; with His6-JNK2α1 [11] it was 6000 nM; in the test with His6-JNK3α1 [12] it was 2800 nM. Further, the Kd with His6-JNK1α1 [13] was 440 nM; in the test with His6-JNK2α1 [14], 5100 nM; in the test with His6-JNK3α1 [15], 1500 nM; with His6-JNK3α1 [16], 1900 nM; in the test with His6-JNK1α1 [17] it was 230 nM; with His6-JNK2α1 [18], 4600 nM. Further, the equilibrium dissociation constant (Kd) came out at 480 nM in the test with His6-JNK3α1 [19], 14000 nM with His6-JNK1α1 [20], 17000 nM with His6-JNK2α1 [21] and 12000 nM in the test with His6-JNK3α1 [22].

Turning to B2, in the test with TMR-JIPtide, the “fold tighter binding than apo-JNK1” value worked out at 2 fold.
